Assay results reported in patent US20030166056A1, “Transmembrane protein as a downstream target of neurotrophin and ephrin receptor tyrosine kinases, DNA encoding same and monoclonal antibodies thereto” (New York University, priority 2000, published 2003).
“Also recorded” adds a separate entry of the source. Values belong to the molecule of their own block, whether it stands above or below them.

Tests used:
Format in all cases: cell-based
[1] = system: tyrosine phosphorylation of ARMS by TrkA in PC12 615 cells; test: Tyrosine phosphorylation of ARMS in PC12 615 cells (IP with 892 antiserum, pY99 immunoblot); conditions: for Block of NGF-induced tyrosine phosphorylation of ARMS: 100 nM pretreatment; for Induction of tyrosine phosphorylation of ARMS: 100 ng/ml NGF, 50 ng/ml EGF, 10 minutes and 2 hours
Procedure: Human embryonic kidney (HEK) 293 and 293T cells were maintained in Dulbecco's Modified Eagle's Medium (DMEM) containing 10% fetal bovine serum (FBS) supplemented with 100 U/ml penicillin, 100 μg/ml streptomycin, and 2 mM glutamine. Native PC12 cells, TrkA-overexpressing PC12 cells (615) (Hempstead et al., 1992), and TrkB-overexpressing PC12 cells were maintained in DMEM containing 10% FBS and 5% heat-inactivated horse serum with 30 U/ml penicillin, 30 μg/ml streptomycin, 2 mM glutamine, and 200 μg/ml G418.
For transient transfection experiments, HEK293 or HEK293T cells plated at 70-80% confluency in 10 cm dishes were subjected to calcium phosphate transfection with different combinations of the mammalian expression plasmids containing cDNAs for ARMS, rat TrkA, and rat HA-tagged p75 (Khursigara et al., 1999). PC12 615 cells or transiently transfected cells were harvested and lysed in 1 ml TNE buffer (10 mM Tris (pH 8.0), 150 mM NaCl, 1 mM EDTA, and 1% NP40) containing 0.12 mg/ml phenylmethylsulfonyl fluoride (PMSF), 2 μg/ml leupeptin, 1 μg/ml aprotinin, 10 mM sodium fluoride (NaF), and 1 mM sodium orthovanadate (Na3VO4) for 30 min on ice. Following centrifugation and removal of the insoluble fraction, protein concentration of the supernatant was determined by the Bio-Rad Protein Assay reagent (Bio-Rad Laboratories, Hercules, Calif.) with bovine serum albumin as the standard. Cell lysates of equivalent protein content were incubated for 4 hours to overnight with rotation at 4° C. with either anti-pan-Trk polyclonal antibody, C14 (1.5 μg) or anti-ARMS (892) antiserum (1:100). The immune complexes were immobilized on protein A-Sepharose beads (Sigma), washed six times with ice-cold TNE buffer, boiled in SDS-sample buffer, separated by sodium dodecyl sulfate-polyacrylamide gel electrophoresis (SDS-PAGE), and transferred onto PVDF membrane (Millipore, Bedford, Mass.). Immunoblotting was carried out by first blocking membranes in TBST buffer (20 mM Tris (pH 7.5), 500 mM NaCl, 0.1% Tween-20) containing 5% BSA for pY99 and 5% nonfat milk for others, and then incubating for 2 hours at room temperature or overnight at 4° C. in TBST buffer containing one of the following primary antibodies: anti-Trk 44 serum (1:2000); anti-phosphotyrosine pY99 antibody (0.1 μg/ml) (Santa Cruz Biotechnology, Santa Cruz, Calif.); anti-ARMS (892) antiserum (1:1000). Membranes were washed with TBST buffer and then incubated with horseradish peroxidase (HRP)-conjugated goat anti-rabbit (Roche Molecular Biochemicals, Indianapolis, Ind.) or goat anti-mouse secondary antibodies (Jackson ImmunoResearch Laboratories, West Grove, Pa.) at 1:10,000 and 1:7500 dilutions, respectively. Immunoreactive protein bands were detected by enhanced chemiluminescence using ECL reagents (Amersham Pharmacia Biotech, Piscataway, N.J.).
The high degree of correspondence in the expression of ARMS and neurotrophin receptors and the endogenous association with TrkA receptors led the present inventors to postulate that ARMS might function as a target for Trk receptor phosphorylation. To investigate this possibility, cell lysates from NGF-treated PC12 cells were prepared and the ARMS protein was immunoprecipitated with anti-ARMS antiserum, 892. Phosphorylation of ARMS protein was visualized by immunoblotting with an anti-phosphotyrosine antibody, pY99. Tyrosine phosphorylation of ARMS was detectable within a minute of NGF addition (FIG. 10A, top), closely following the time course of TrkA autophosphorylation (FIG. 10A, bottom). With continued NGF treatment, the phosphorylation of ARMS persisted for 25 hours (FIG. 10B).

[2] = target: T1, association between ARMS and the TrkA receptor (Homo sapiens, UniProt P04629); test: Coprecipitation of TrkA and ARMS in PC12 615 cells; conditions: NGF 100 ng/ml, IP anti-Trk C-14, blot anti-ARMS
T1 construct: expressed in transfected cells; host or cells: PC12 615 cells (TrkA-overexpressing PC12); ARMS is endogenous to these cells
T1 sequence (P04629 33-796): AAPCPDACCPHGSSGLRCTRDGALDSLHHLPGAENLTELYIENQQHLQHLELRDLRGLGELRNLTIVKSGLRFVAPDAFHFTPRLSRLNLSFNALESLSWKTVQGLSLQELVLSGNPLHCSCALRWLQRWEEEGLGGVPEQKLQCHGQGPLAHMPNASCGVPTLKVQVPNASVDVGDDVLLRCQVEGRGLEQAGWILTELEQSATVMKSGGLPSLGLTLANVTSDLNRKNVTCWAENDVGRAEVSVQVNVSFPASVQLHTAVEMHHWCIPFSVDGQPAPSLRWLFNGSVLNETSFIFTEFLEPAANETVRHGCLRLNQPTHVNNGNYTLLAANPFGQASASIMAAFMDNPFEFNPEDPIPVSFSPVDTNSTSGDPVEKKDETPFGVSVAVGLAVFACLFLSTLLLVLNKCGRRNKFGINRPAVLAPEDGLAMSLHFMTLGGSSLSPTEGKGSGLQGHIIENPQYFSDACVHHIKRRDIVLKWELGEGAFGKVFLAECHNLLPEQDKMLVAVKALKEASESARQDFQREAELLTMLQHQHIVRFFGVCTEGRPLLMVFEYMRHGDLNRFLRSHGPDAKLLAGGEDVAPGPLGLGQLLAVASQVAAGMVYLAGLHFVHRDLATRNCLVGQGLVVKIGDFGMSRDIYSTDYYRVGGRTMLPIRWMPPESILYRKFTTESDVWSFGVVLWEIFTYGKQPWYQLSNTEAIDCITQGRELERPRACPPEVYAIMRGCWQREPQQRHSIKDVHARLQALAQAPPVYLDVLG
T1 sequence (Q9EQG6 whole entry partner): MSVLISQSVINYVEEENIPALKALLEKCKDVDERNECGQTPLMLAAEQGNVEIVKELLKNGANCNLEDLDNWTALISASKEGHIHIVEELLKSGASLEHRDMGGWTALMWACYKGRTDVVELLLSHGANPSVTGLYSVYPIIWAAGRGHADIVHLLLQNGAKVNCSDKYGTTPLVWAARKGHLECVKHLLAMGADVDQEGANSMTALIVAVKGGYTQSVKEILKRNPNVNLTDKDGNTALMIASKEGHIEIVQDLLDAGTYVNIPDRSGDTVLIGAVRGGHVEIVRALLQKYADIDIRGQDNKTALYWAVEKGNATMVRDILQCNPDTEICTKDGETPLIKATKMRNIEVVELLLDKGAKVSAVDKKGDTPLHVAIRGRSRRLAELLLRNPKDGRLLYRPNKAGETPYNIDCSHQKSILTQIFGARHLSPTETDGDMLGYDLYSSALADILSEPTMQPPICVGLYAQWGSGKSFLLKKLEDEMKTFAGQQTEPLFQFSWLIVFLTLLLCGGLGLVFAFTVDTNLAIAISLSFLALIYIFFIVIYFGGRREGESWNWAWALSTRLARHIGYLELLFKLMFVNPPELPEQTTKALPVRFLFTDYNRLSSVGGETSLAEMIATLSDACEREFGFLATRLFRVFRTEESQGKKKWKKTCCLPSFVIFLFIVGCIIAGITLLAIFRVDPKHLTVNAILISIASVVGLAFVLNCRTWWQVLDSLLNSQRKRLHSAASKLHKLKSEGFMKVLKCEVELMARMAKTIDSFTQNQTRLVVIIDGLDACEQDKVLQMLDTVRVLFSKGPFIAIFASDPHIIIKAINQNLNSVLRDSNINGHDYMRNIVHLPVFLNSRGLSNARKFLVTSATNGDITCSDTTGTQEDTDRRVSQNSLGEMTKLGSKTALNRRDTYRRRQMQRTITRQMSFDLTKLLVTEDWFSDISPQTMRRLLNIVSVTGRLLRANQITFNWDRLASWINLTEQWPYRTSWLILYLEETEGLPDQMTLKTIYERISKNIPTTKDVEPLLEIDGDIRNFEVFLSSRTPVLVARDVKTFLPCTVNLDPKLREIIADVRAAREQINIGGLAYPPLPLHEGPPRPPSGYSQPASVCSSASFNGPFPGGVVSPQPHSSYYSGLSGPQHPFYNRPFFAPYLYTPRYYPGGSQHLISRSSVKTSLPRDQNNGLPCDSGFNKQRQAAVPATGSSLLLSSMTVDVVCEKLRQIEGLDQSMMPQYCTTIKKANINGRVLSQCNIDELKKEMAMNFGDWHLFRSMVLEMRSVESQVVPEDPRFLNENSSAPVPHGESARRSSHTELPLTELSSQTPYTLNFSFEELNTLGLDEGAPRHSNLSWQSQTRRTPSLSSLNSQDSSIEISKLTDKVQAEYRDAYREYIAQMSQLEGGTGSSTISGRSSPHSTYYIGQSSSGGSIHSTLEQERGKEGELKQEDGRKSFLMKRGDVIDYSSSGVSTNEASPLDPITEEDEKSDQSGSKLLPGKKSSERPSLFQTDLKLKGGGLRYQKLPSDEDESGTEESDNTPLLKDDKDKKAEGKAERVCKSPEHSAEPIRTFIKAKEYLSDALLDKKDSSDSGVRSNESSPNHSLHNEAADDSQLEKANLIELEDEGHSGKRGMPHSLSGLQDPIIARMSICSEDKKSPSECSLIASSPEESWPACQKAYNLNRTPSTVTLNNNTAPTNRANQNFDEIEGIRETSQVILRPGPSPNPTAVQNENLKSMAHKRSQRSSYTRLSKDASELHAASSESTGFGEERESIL
Procedure: (§1) FIGS. 9A-9D show coprecipitation of TrkA and ARMS (FIG. 9A) and colocalization of TrkA and ARMS (FIGS. 9B-9D). In FIG. 9A, PC12 615 cells were treated for 10 minutes and 25 hours with NGF (100 ng/ml). Lysates were prepared and subjected to immunoprecipitation with anti-Trk C-14 antibody, followed by immunoblot with anti-ARMS antibody. Normal rabbit IgG was used as a negative control. In FIGS. 9B-9D, immunofluorescence analysis of ARMS and TrkA receptor in sympathetic neurons is shown. SCG sympathetic neurons were grown in the presence of 150 ng/ml NGF, fixed and immunostained as described in the Methods section of Example 1. The ARMS protein and the TrkA receptor were subjected to double immunostaining using an anti-ARMS antiserum (FIG. 9B) and an anti-Trk B-3 (FIG. 9C) monoclonal antibody and analyzed by confocal microscopy. […]
(§2) For transient transfection experiments, HEK293 or HEK293T cells plated at 70-80% confluency in 10 cm dishes were subjected to calcium phosphate transfection with different combinations of the mammalian expression plasmids containing cDNAs for ARMS, rat TrkA, and rat HA-tagged p75 (Khursigara et al., 1999). […] Following centrifugation and removal of the insoluble fraction, protein concentration of the supernatant was determined by the Bio-Rad Protein Assay reagent (Bio-Rad Laboratories, Hercules, Calif.) with bovine serum albumin as the standard. […]

[3] = target: T2, association between ARMS and the TrkA receptor; test: Coprecipitation of TrkA and ARMS in PC12 615 cells; conditions: NGF 100 ng/ml
T2 construct: expressed in transfected cells; host or cells: PC12 615 cells (TrkA-overexpressing PC12); ARMS is endogenous to these cells
T2 sequence (P04629 33-796): as the sequence (P04629 33-796) above
T2 sequence (Q9EQG6 whole entry partner): as the sequence (Q9EQG6 whole entry partner) above
Procedure: as §1, §2

[4] = system: distribution of ARMS in hippocampal neurons and PC12 cells; test: Immunofluorescence analysis of ARMS distribution; conditions: confocal immunofluorescence with antibody 892
Procedure: FIGS. 16A and 16B show a PC12 Immunofluorescence analysis. PC12 cells with (FIG. 16A) or without (FIG. 16B) NGF treatment cultured in Lab-Tek chamber slides (Nalge Nunc International) coated with collagen and poly-L-lysine were fixed with paraformaldehyde and permeablized with cold methanol. Cells were blocked with PBS containing 10% FCS and incubated with purified antibody (3 μg/ml) against the C-terminus of ARMS protein, 892 (Example 1). Primary antibodies were visualized using fluorescence-conjugated secondary antibodies (FITC-conjugated goat anti-rabbit IgG; Jackson Laboratories).
FIGS. 17A-17F show immunolocalization of ARMS and VAMP-2, a synaptic vesicle marker, in hippocampal neurons. Primary cultures of hippocampal neurons were obtained from rats E17-19 and maintained with Neurobasal medium (Gibco) supplemented with B-27 and 0.4 mM glutamine in Lab-Tek chamber slides (Nalge Nunc International) coated with poly-L-lysine. […] Primary antibodies were detected using fluorescence-conjugated secondary antibodies (FITC-conjugated goat anti-rabbit IgG and rhodamine-conjugated goat anti-mouse IgG (Jackson Laboratories)). […]

Molecule: COC(=O)[C@@]1(O)C[C@H]2O[C@]1(C)n1c3ccccc3c3c4c(c5c6ccccc6n2c5c31)C(=O)NC4 [K252a, reference compound]
Block of NGF-induced tyrosine phosphorylation of ARMS ([1]; PC12 615 cells, NGF treatment): potently blocked
Block of NGF-induced tyrosine phosphorylation of ARMS ([1]; PC12 615 cells, NGF treatment, listed as K-252a): completely abolished

Molecule: insulin
Induction of tyrosine phosphorylation of ARMS ([1]; PC12 615 cells): not elicited

Persistence of ARMS-TrkA association after treatment [2]: 25 h
Association between ARMS and TrkA receptor [3]: NGF-dependent association
B1: NGF: neurotrophin, ligand of TrkA; obtained from Harlan (protein, UniProt P01139 122-241, looked up)
Beta-nerve growth factor: SSTHPVFHMGEFSVCDSVSVWVGDKTTATDIKGKEVTVLAEVNINNSVFRQYFFETKCRASNPVESGCRGIDSKHWNSYCTTTHTFVKALTTDEKQAAWRFIRIDTACVCVLSRKATRRG
Time to detectable ARMS phosphorylation ([1]; PC12 615 cells, NGF treatment): ≤ 1 min
Induction of tyrosine phosphorylation of ARMS ([1]; PC12 615 cells): considerably more robust; also recorded: specifically induced
Time of peak ARMS phosphorylation ([1]; PC12 cells, NGF treatment): ≤ 10 min
Change in distribution of ARMS [4]: dramatic change in distribution; also recorded: localized at neurite tips
